The data set deals with NSG-SGM3×IL15 mice humanized with human PBMCs. The data set can be described thus: Cytokine release syndrome (CRS) induction in PBMC-humanized mice, serum cytokine levels. Format: in vivo, mouse. An excerpt:
FIGS. 9A-9C show comparisons of TNF (FIG. 9A), IL-6 (FIG. 9B), and IL-2 (FIG. 9C) levels in NSG-SGM3 mice and NSG-SGM3×IL15 mice engrafted with 5×10^6 human PBMCs per mouse.
FIGS. 10A-10C show comparisons of IFN-γ (FIG. 10A), TNF (FIG. 10B), and IL-6 (FIG. 10C) levels in NSG-SGM3 mice and NSG-SGM3×IL15 mice engrafted with 1×10^6 or 2×10^6 human PBMCs per mouse, with two different doses of irradiation (150 and 175 cGy).
NSG-SGM3×IL15 and NSG-SGM3 mice humanized with human PBMCs and then dosed with various drugs to induce cytokine release syndrome (CRS). Briefly, the mice were irradiated (100 cGy) and administered PBS, OKT3, Anti-CD28, or a CD19×CD3 BiTE.
The use of lower levels of PBMCs for humanization was also tested. Briefly, NSG-SGM3×IL15 and NSG-SGM3 mice were irradiated (150 cGy or 175 cGy) and administered human PBMCs intravenously (1×10^6/mouse or 2×10^6/mouse) on day 0. On day 12, mice were dosed with PBS or OKT3 and serum cytokine levels were analyzed.

The text below walks through data of patent US20250057128A1, “HUMANIZED MOUSE MODELS” (The Jackson Laboratory, priority 2021, published 2025).

On to “OKT3: drug dosed to induce cytokine release syndrome; known to induce cytokine release”, for which the “serum cytokine levels (TNF, IL-6, IL-2)” value (NSG-SGM3×IL15 mice as compared to NSG-SGM3 mice, irradiated 100 cGy, 5×10^6 human PBMCs per mouse, FIGS. 9A-9C) is “higher cytokine levels”. In addition, the “serum cytokine levels (IFN-γ, TNF, IL-6)” value (irradiated 150 cGy or 175 cGy, 1×10^6 or 2×10^6 human PBMCs per mouse, dosed on day 12, drug vs PBS control, FIGS. 10A-10C) is “greater difference between the drug (OKT3) and control (PBS)”.
